# Source: patent US9149523B2, “Compositions and methods for treating cancer and neurodegenerative diseases” (Yeda Research and Development Co. Ltd., priority 2010, dated 2015)
# B1: WT protein: tagged human full-length death-associated protein kinase (DAPk), expressed by transfection (protein)
# chain: MTVFRQENVDDYYDTGEELGSGQFAVVKKCREKSTGLQYAAKFIKKRRTKSSRRGVSREDIEREVSILKEIQHPNVITLHEVYENKTDVILILELVAGGELFDFLAEKESLTEEEATEFLKQILNGVYYLHSLQIAHFDLKPENIMLLDRNVPKPRIKIIDFGLAHKIDFGNEFKNIFGTPEFVAPEIVNYEPLGLEADMWSIGVITYILLSGASPFLGDTKQETLANVSAVNYEFEDEYFSNTSALAKDFIRRLLVKDPKKRMTIQDSLQHPWIKPKDTQQALSRKASAVNMEKFKKFAARKKWKQSVRLISLCQRLSRSFLSRSNMSVARSDDTLDEEDSFVMKAIIHAINDDNVPGLQHLLGSLSNYDVNQPNKHGTPPLLIAAGCGNIQILQLLIKRGSRIDVQDKGGSNAVYWAARHGHVDTLKFLSENKCPLDVKDKSGEMALHVAARYGHADVAQLLCSFGSNPNIQDKEEETPLHCAAWHGYYSVAKALCEAGCNVNIKNREGETPLLTASARGYHDIVECLAEHGADLNACDKDGHIALHLAVRRCQMEVIKTLLSQGCFVDYQDRHGNTPLHVACKDGNMPIVVALCEANCNLDISNKYGRTPLHLAANNGILDVVRYLCLMGASVEALTTDGKTAEDLARSEQHEHVAGLLARLRKDTHRGLFIQQLRPTQNLQPRIKLKLFGHSGSGKTTLVESLKCGLLRSFFRRRRPRLSSTNSSRFPPSPLASKPTVSVSINNLYPGCENVSVRSRSMMFEPGLTKGMLEVFVAPTHHPHCSADDQSTKAIDIQNAYLNGVGDFSVWEFSGNPVYFCCYDYFAANDPTSIHVVVFSLEEPYEIQLNQVIFWLSFLKSLVPVEEPIAFGGKLKNPLQVVLVATHADIMNVPRPAGGEFGYDKDTSLLKEIRNRFGNDLHISNKLFVLDAGASGSKDMKVLRNHLQEIRSQIVSVCPPMTHLCEKIISTLPSWRKLNGPNQLMSLQQFVYDVQDQLNPLASEEDLRRIAQQLHSTGEINIMQSETVQDVLLLDPRWLCTNVLGKLLSVETPRALHHYRGRYTVEDIQRLVPDSDVEELLQILDAMDICARDLSSGTMVDVPALIKTDNLHRSWADEEDEVMVYGGVRIVPVEHLTPFPCGIFHKVQVNLCRWIHQQSTEGDADIRLWVNGCKLANRGAELLVLLVNHGQGIEVQVRGLETEKIKCCLLLDSVCSTIENVMATTLPGLLTVKHYLSPQQLREHHEPVMIYQPRDFFRAQTLKETSLTNTMGGYKESFSSIMCFGCHDVYSQASLGMDIHASDLNLLTRRKLSRLLDPPDPLGKDWCLLAMNLGLPDLVAKYNTSNGAPKDFLPSPLHALLREWTTYPESTVGTLMSKLRELGRRDAADFLLKASSVFKINLDGNGQEAYASSCNSGTSYNSISSVVSR
# modifications: left off: small tags and cut ends
# notes: tagged human full-length death-associated protein kinase (DAPk), expressed by transfection
# Test system: HEK 293T cells
# Assay: Cell detachment assay 24 h after transfection
# Assay type: cell-based, human
# Conditions: 24 h post-transfection, versus luciferase-transfected control cells, p<0.01 between the two constructs
# Procedure: Cell detachment was assessed as described before (Widau, Jin et al. 2010), by counting the adherent cells left in the tissue culture plate after 24 h of transfection with either DAPk WT or ΔP-Loop. Briefly, cells were washed twice in PBS to remove detached cells. Then, adherent cells were trypsinized and counted with a Countess® Automated Cell Counter (Invitrogen). The extent of cell detachment is defined as (the number of control cells—the number of treated cells)/(the number of control cells), where control cells are HEK 293T cell transected with the irrelevant protein luciferase.
# The functional effects of the GTP binding on DAPk's ability to induce some of its canonical phenotypic effects in cell cultures, namely cell rounding and detachment, and membrane blebbing, was assessed. These DAPk associated cellular changes are dependent on DAPk's catalytic activity and have been successfully used in other studies to assess DAPk activity in vivo (Widau, Jin et al. 2010). The necessity of the GTP-binding to the ROC domain for the extent of these effects on HEK 293T cells was examined. This was achieved by comparing DAPk WT to its P-Loop deletant counterpart. FIG. 6A presents a western blot analysis showing even expression levels between the constructs used in the cell detachment assay, ruling out any possibility of false results generated by uneven expression levels. […]
molecule,measurement,value
B1,cell detachment,17.4%±7.4%
